The results in this text go back to patent US20200181258A1.

In this assay the target is canine FcRn-β2M complex (canine). Nature of the assay: SPR, antibody captured on Protein L, soluble FcRn 920 and 460 nM, pH 6.0, 25 C.

In general, Kd refers to the constant that tells how readily two partners part at equilibrium. YTE-b12 canine IgGB (antibody) registered a Kd of 150 nM.
